Where two headings read alike, the source gives them in different places.
Legend:
hnRNPK KH3 [1] = target: T1, hnRNPK KH3 (Homo sapiens, UniProt P61978 384-463); experiment: ITC
hnRNPK KH3 [2] = target: T1, hnRNPK KH3; experiment: ITC; remark: listed apart in the source

T1 sequence (P61978 384-463): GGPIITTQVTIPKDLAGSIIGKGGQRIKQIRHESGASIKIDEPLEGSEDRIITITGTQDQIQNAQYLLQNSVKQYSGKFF

| Binder | binding result (hnRNPK KH3 [1]) | Kd (hnRNPK KH3 [2]) [µM] | Kd (hnRNPK KH3 [1]) [µM] |
| --- | --- | --- | --- |
| CUAAAGC (ssRNA) [mutant heptamer RNA] | no binding | – | – |
| CUCCCGC (ssRNA) [heptamer RNA] | – | 4.74 ± 1 | 4.31 ± 0.68 |
